Values of other authors in patent publication US10906951B2, “Modified natural killer cells and natural killer cell lines having increased cytotoxicity” (ONK THERAPEUTICS LIMITED, priority 2015, dated 2021).

B1: N199R: TRAIL DR4 variant, WO 2009/066174 (protein, UniProt P50591 1-281, looked up, variant N199R)
Tumor necrosis factor ligand …: MAMMEVQGGPSLGQTCVLIVIFTVLLQSLCVAVTYVYFTNELKQMQDKYSKSGIACFLKEDDSYWDPNDEESMNSPCWQVKWQLRQLVRKMILRTSEETISTVQEKQQNISPLVRERGPQRVAAHITGTRGRSNTLSSPNSKNEKALGRKINSWESSRSGHSFLSNLHLRNGELVIHEKGFYYIYSQTYFRFQEEIKERTKNDKQMVQYIYKYTSYPDPILLMKSARNSCWSKDAEYGLYSIYQGGIFELKENDRIFVSVTNEHLIDMDHEASFFGAFLVG
B2: K212R: TRAIL DR4 variant, WO 2009/066174 (protein, UniProt P50591 1-281, looked up, variant K212R)
Tumor necrosis factor ligand …: MAMMEVQGGPSLGQTCVLIVIFTVLLQSLCVAVTYVYFTNELKQMQDKYSKSGIACFLKEDDSYWDPNDEESMNSPCWQVKWQLRQLVRKMILRTSEETISTVQEKQQNISPLVRERGPQRVAAHITGTRGRSNTLSSPNSKNEKALGRKINSWESSRSGHSFLSNLHLRNGELVIHEKGFYYIYSQTYFRFQEEIKENTKNDKQMVQYIYRYTSYPDPILLMKSARNSCWSKDAEYGLYSIYQGGIFELKENDRIFVSVTNEHLIDMDHEASFFGAFLVG
B3: G131R/N199R/K201H: TRAIL DR4 variant, WO 2009/066174 (protein, UniProt P50591 1-281, looked up, variant G131R N199R K201H)
Tumor necrosis factor ligand …: MAMMEVQGGPSLGQTCVLIVIFTVLLQSLCVAVTYVYFTNELKQMQDKYSKSGIACFLKEDDSYWDPNDEESMNSPCWQVKWQLRQLVRKMILRTSEETISTVQEKQQNISPLVRERGPQRVAAHITGTRRRSNTLSSPNSKNEKALGRKINSWESSRSGHSFLSNLHLRNGELVIHEKGFYYIYSQTYFRFQEEIKERTHNDKQMVQYIYKYTSYPDPILLMKSARNSCWSKDAEYGLYSIYQGGIFELKENDRIFVSVTNEHLIDMDHEASFFGAFLVG
B4: K204L: TRAIL DR4 variant, WO 2009/066174 (protein, UniProt P50591 1-281, looked up, variant K204L)
Tumor necrosis factor ligand …: MAMMEVQGGPSLGQTCVLIVIFTVLLQSLCVAVTYVYFTNELKQMQDKYSKSGIACFLKEDDSYWDPNDEESMNSPCWQVKWQLRQLVRKMILRTSEETISTVQEKQQNISPLVRERGPQRVAAHITGTRGRSNTLSSPNSKNEKALGRKINSWESSRSGHSFLSNLHLRNGELVIHEKGFYYIYSQTYFRFQEEIKENTKNDLQMVQYIYKYTSYPDPILLMKSARNSCWSKDAEYGLYSIYQGGIFELKENDRIFVSVTNEHLIDMDHEASFFGAFLVG
B5: G131R/N199R/K201H/R149I/S159R/S215D: TRAIL DR4 variant, WO 2009/066174 (protein, UniProt P50591 1-281, looked up, variant G131R N199R K201H R149I S159R S215D)
Tumor necrosis factor ligand …: MAMMEVQGGPSLGQTCVLIVIFTVLLQSLCVAVTYVYFTNELKQMQDKYSKSGIACFLKEDDSYWDPNDEESMNSPCWQVKWQLRQLVRKMILRTSEETISTVQEKQQNISPLVRERGPQRVAAHITGTRRRSNTLSSPNSKNEKALGIKINSWESSRRGHSFLSNLHLRNGELVIHEKGFYYIYSQTYFRFQEEIKERTHNDKQMVQYIYKYTDYPDPILLMKSARNSCWSKDAEYGLYSIYQGGIFELKENDRIFVSVTNEHLIDMDHEASFFGAFLVG
B6: N199H/K201R: TRAIL DR4 variant, WO 2009/066174 (protein, UniProt P50591 1-281, looked up, variant N199H K201R)
Tumor necrosis factor ligand …: MAMMEVQGGPSLGQTCVLIVIFTVLLQSLCVAVTYVYFTNELKQMQDKYSKSGIACFLKEDDSYWDPNDEESMNSPCWQVKWQLRQLVRKMILRTSEETISTVQEKQQNISPLVRERGPQRVAAHITGTRGRSNTLSSPNSKNEKALGRKINSWESSRSGHSFLSNLHLRNGELVIHEKGFYYIYSQTYFRFQEEIKEHTRNDKQMVQYIYKYTSYPDPILLMKSARNSCWSKDAEYGLYSIYQGGIFELKENDRIFVSVTNEHLIDMDHEASFFGAFLVG
B7: G131R/D218H: TRAIL DR4 variant, WO 2009/066174 (protein, UniProt P50591 1-281, looked up, variant G131R D218H)
Tumor necrosis factor ligand …: MAMMEVQGGPSLGQTCVLIVIFTVLLQSLCVAVTYVYFTNELKQMQDKYSKSGIACFLKEDDSYWDPNDEESMNSPCWQVKWQLRQLVRKMILRTSEETISTVQEKQQNISPLVRERGPQRVAAHITGTRRRSNTLSSPNSKNEKALGRKINSWESSRSGHSFLSNLHLRNGELVIHEKGFYYIYSQTYFRFQEEIKENTKNDKQMVQYIYKYTSYPHPILLMKSARNSCWSKDAEYGLYSIYQGGIFELKENDRIFVSVTNEHLIDMDHEASFFGAFLVG
B8: N199R/K201H: TRAIL DR4 variant, WO 2009/066174 (protein, UniProt P50591 1-281, looked up, variant N199R K201H)
Tumor necrosis factor ligand …: MAMMEVQGGPSLGQTCVLIVIFTVLLQSLCVAVTYVYFTNELKQMQDKYSKSGIACFLKEDDSYWDPNDEESMNSPCWQVKWQLRQLVRKMILRTSEETISTVQEKQQNISPLVRERGPQRVAAHITGTRGRSNTLSSPNSKNEKALGRKINSWESSRSGHSFLSNLHLRNGELVIHEKGFYYIYSQTYFRFQEEIKERTHNDKQMVQYIYKYTSYPDPILLMKSARNSCWSKDAEYGLYSIYQGGIFELKENDRIFVSVTNEHLIDMDHEASFFGAFLVG
B9: K204E: TRAIL DR4 variant, WO 2009/066174 (protein, UniProt P50591 1-281, looked up, variant K204E)
Tumor necrosis factor ligand …: MAMMEVQGGPSLGQTCVLIVIFTVLLQSLCVAVTYVYFTNELKQMQDKYSKSGIACFLKEDDSYWDPNDEESMNSPCWQVKWQLRQLVRKMILRTSEETISTVQEKQQNISPLVRERGPQRVAAHITGTRGRSNTLSSPNSKNEKALGRKINSWESSRSGHSFLSNLHLRNGELVIHEKGFYYIYSQTYFRFQEEIKENTKNDEQMVQYIYKYTSYPDPILLMKSARNSCWSKDAEYGLYSIYQGGIFELKENDRIFVSVTNEHLIDMDHEASFFGAFLVG
B10: G131R: TRAIL DR4 variant, WO 2009/066174 (protein, UniProt P50591 1-281, looked up, variant G131R)
Tumor necrosis factor ligand …: MAMMEVQGGPSLGQTCVLIVIFTVLLQSLCVAVTYVYFTNELKQMQDKYSKSGIACFLKEDDSYWDPNDEESMNSPCWQVKWQLRQLVRKMILRTSEETISTVQEKQQNISPLVRERGPQRVAAHITGTRRRSNTLSSPNSKNEKALGRKINSWESSRSGHSFLSNLHLRNGELVIHEKGFYYIYSQTYFRFQEEIKENTKNDKQMVQYIYKYTSYPDPILLMKSARNSCWSKDAEYGLYSIYQGGIFELKENDRIFVSVTNEHLIDMDHEASFFGAFLVG
B11: K204D: TRAIL DR4 variant, WO 2009/066174 (protein, UniProt P50591 1-281, looked up, variant K204D)
Tumor necrosis factor ligand …: MAMMEVQGGPSLGQTCVLIVIFTVLLQSLCVAVTYVYFTNELKQMQDKYSKSGIACFLKEDDSYWDPNDEESMNSPCWQVKWQLRQLVRKMILRTSEETISTVQEKQQNISPLVRERGPQRVAAHITGTRGRSNTLSSPNSKNEKALGRKINSWESSRSGHSFLSNLHLRNGELVIHEKGFYYIYSQTYFRFQEEIKENTKNDDQMVQYIYKYTSYPDPILLMKSARNSCWSKDAEYGLYSIYQGGIFELKENDRIFVSVTNEHLIDMDHEASFFGAFLVG
B12: K204Y: TRAIL DR4 variant, WO 2009/066174 (protein, UniProt P50591 1-281, looked up, variant K204Y)
Tumor necrosis factor ligand …: MAMMEVQGGPSLGQTCVLIVIFTVLLQSLCVAVTYVYFTNELKQMQDKYSKSGIACFLKEDDSYWDPNDEESMNSPCWQVKWQLRQLVRKMILRTSEETISTVQEKQQNISPLVRERGPQRVAAHITGTRGRSNTLSSPNSKNEKALGRKINSWESSRSGHSFLSNLHLRNGELVIHEKGFYYIYSQTYFRFQEEIKENTKNDYQMVQYIYKYTSYPDPILLMKSARNSCWSKDAEYGLYSIYQGGIFELKENDRIFVSVTNEHLIDMDHEASFFGAFLVG
B13: S215E: TRAIL DR4 variant, WO 2009/066174 (protein, UniProt P50591 1-281, looked up, variant S215E)
Tumor necrosis factor ligand …: MAMMEVQGGPSLGQTCVLIVIFTVLLQSLCVAVTYVYFTNELKQMQDKYSKSGIACFLKEDDSYWDPNDEESMNSPCWQVKWQLRQLVRKMILRTSEETISTVQEKQQNISPLVRERGPQRVAAHITGTRGRSNTLSSPNSKNEKALGRKINSWESSRSGHSFLSNLHLRNGELVIHEKGFYYIYSQTYFRFQEEIKENTKNDKQMVQYIYKYTEYPDPILLMKSARNSCWSKDAEYGLYSIYQGGIFELKENDRIFVSVTNEHLIDMDHEASFFGAFLVG
B14: K201R: TRAIL DR4 variant, WO 2009/066174 (protein, UniProt P50591 1-281, looked up, variant K201R)
Tumor necrosis factor ligand …: MAMMEVQGGPSLGQTCVLIVIFTVLLQSLCVAVTYVYFTNELKQMQDKYSKSGIACFLKEDDSYWDPNDEESMNSPCWQVKWQLRQLVRKMILRTSEETISTVQEKQQNISPLVRERGPQRVAAHITGTRGRSNTLSSPNSKNEKALGRKINSWESSRSGHSFLSNLHLRNGELVIHEKGFYYIYSQTYFRFQEEIKENTRNDKQMVQYIYKYTSYPDPILLMKSARNSCWSKDAEYGLYSIYQGGIFELKENDRIFVSVTNEHLIDMDHEASFFGAFLVG
B15: G131R/R149I/S159R/S215D: 4C9, a DR4-specific TRAIL variant; DNA sequence SEQ ID NO: 14 (protein, listed as Homo sapiens)
chain: MAMMEVQGGPSLGQTCVLIVIFTVLLQSLCVAVTYVYFTNELKQMQDKYSKSGIACFLKEDDSYWDPNDEESMNSPCWQVKWQLRQLVRKMILRTSEETISTVQEKQQNISPLVRERGPQRVAAHITGTRRRSNTLSSPNSKNEKALGIKINSWESSRRGHSFLSNLHLRNGELVIHEKGFYYIYSQTYFRFQEEIKENTKNDKQMVQYIYKYTDYPDPILLMKSARNSCWSKDAEYGLYSIYQGGIFELKENDRIFVSVTNEHLIDMDHEASFFGAFLVG
B16: K201H: TRAIL DR4 variant, WO 2009/066174 (protein, UniProt P50591 1-281, looked up, variant K201H)
Tumor necrosis factor ligand …: MAMMEVQGGPSLGQTCVLIVIFTVLLQSLCVAVTYVYFTNELKQMQDKYSKSGIACFLKEDDSYWDPNDEESMNSPCWQVKWQLRQLVRKMILRTSEETISTVQEKQQNISPLVRERGPQRVAAHITGTRGRSNTLSSPNSKNEKALGRKINSWESSRSGHSFLSNLHLRNGELVIHEKGFYYIYSQTYFRFQEEIKENTHNDKQMVQYIYKYTSYPDPILLMKSARNSCWSKDAEYGLYSIYQGGIFELKENDRIFVSVTNEHLIDMDHEASFFGAFLVG

Target: DR4 (Homo sapiens, UniProt O00220)
Conditions: in words; known from WO 2009/066174, MacFarlane 2005; cited from earlier work

Affinity for DR4, increased affinity for DR4:
B1
B2
B3
B4
B5
B6
B7
B8
B9
B10
B11
B12
B13
B14
B15
B16
